Results on 1 substance are retold here after patent US20140154252A1.

The target of experiment [1] is T1, CD37 (human) (UniProt P11049).
T1 sequence (looked up): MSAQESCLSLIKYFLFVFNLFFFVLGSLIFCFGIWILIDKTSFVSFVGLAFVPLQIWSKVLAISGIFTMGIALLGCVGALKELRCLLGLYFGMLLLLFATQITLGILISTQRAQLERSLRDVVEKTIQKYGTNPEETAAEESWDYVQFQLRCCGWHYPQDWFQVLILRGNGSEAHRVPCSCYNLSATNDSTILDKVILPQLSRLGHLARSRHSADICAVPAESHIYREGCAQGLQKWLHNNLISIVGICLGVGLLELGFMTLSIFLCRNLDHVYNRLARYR
Put plainly: cell-based or functional assay.

The target of experiment [2] is CD20 (human) (UniProt P11836). Put plainly: cell-based or functional assay.
Sequence of CD20 (human) (P11836 whole entry): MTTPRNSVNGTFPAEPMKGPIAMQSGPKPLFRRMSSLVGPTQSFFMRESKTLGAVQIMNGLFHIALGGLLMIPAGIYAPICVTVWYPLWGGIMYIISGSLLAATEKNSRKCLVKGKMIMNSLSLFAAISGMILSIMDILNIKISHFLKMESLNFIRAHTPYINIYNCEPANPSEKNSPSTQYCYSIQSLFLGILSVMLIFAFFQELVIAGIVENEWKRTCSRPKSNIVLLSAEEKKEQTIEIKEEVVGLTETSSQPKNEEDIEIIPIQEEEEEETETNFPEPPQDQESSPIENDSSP
In experiment [3] the target is T1, CD37 (human). Nature of the experiment: competition flow cytometry on Ramos B-cells; competitor FITC anti-CD37 antibody [lower graph (Detection of FITC-CD37 mAb].
For experiment [4], the target named is CD20 (human) (UniProt P11836). Nature of the experiment: competition flow cytometry on Ramos B-cells; competitor PE anti-CD20 antibody [upper graph (Detection of PE-CD20 mAb]. (In general: Flow cytometry measures light scatter and fluorescence of single cells or particles in a stream.)

With “CD20×CD37 bispecific scorpion (015×016) (bispecific antibody)”, the IC50 (nM), direct growth inhibition of DoHH2 cells, 96 h, ATP detection with CD37 (human) [1] and with CD20 (human) [2] was 0.05 nM in each case. Also, the IC50 (nM), direct growth inhibition of SU-DHL-6 cells, 96 h, ATP detection with CD37 (human) [1] and in the experiment with CD20 (human) [2] was 0.05 nM throughout. Further, the IC50 (read off the curve) is 2 nM in the experiment with CD37 (human) [3] and 5 nM in the experiment with CD20 (human) [4].
